Test results from patent US20230346961A1, “GLP-1 AND GIP RECEPTOR CO-AGONISTS” (Novo Nordisk A/S, priority 2020, published 2023).
Starred links: 1 amine or outer side, 2 acyl side, 3 side chain; linkers in the order of their positions; H or OH if unused. Non-standard residues stand in square brackets, D forms with d. Groups on a side chain read outwards from the residue. *: point of attachment. C18 diacid = O=C(O)CCCCCCCCCCCCCCCCC(=O)*; γGlu = O=C(O)[C@H](CCC(=O)[*:2])N[*:1]; AEEA = NCCOCCOCC(=O)O; Aib = CC(C)(N)C(=O)O

Legend:
Assay in all cases: cell-based or functional assay
[1] = target: T1, mouse glucose-dependent insulinotropic polypeptide receptor (mouse) (UniProt Q0P543)
T1 sequence (looked up): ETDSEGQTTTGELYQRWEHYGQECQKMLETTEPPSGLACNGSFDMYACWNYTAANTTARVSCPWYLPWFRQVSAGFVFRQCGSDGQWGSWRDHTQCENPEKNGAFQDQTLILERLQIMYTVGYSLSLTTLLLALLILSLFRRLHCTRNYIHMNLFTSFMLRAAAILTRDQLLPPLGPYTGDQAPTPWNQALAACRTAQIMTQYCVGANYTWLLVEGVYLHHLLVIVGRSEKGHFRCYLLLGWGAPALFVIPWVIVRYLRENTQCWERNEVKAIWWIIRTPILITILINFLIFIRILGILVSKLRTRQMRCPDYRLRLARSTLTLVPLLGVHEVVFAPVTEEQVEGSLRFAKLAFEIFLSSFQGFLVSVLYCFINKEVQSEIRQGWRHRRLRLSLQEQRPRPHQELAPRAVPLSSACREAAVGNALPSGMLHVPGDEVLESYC

[2] = target: T2, human glucose-dependent insulinotropic polypeptide receptor (human) (UniProt P48546)
T2 sequence (looked up): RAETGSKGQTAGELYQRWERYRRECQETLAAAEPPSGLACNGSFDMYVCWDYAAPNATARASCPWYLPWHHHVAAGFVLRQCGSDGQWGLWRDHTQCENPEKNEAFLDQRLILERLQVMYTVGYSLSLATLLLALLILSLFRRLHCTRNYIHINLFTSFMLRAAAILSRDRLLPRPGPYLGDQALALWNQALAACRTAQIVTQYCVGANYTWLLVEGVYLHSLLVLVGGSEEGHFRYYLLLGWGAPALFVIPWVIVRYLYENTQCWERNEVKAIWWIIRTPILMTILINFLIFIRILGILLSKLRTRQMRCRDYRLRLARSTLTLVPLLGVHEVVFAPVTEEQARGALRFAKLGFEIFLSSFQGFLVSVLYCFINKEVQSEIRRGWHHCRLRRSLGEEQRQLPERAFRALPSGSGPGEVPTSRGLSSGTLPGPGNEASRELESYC

[3] = target: T3, mouse glucose-dependent insulinotropic polypeptide receptor (mouse, UniProt Q0P543 19-460)
T3 sequence (looked up): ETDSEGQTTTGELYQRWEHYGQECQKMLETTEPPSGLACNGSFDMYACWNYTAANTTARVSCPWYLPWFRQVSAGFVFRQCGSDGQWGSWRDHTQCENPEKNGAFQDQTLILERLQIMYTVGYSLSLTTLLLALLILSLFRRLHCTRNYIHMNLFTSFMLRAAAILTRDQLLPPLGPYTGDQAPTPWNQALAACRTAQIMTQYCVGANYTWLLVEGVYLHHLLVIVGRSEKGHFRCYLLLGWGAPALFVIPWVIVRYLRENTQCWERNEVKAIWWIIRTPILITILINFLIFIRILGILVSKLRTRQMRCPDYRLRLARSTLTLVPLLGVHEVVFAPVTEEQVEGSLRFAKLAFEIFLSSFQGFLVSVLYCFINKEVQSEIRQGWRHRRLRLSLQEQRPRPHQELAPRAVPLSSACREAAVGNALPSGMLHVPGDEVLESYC

[4] = target: T4, mouse glucagon-like peptide 1 receptor (mouse, UniProt O35659 22-463)
T4 sequence (looked up): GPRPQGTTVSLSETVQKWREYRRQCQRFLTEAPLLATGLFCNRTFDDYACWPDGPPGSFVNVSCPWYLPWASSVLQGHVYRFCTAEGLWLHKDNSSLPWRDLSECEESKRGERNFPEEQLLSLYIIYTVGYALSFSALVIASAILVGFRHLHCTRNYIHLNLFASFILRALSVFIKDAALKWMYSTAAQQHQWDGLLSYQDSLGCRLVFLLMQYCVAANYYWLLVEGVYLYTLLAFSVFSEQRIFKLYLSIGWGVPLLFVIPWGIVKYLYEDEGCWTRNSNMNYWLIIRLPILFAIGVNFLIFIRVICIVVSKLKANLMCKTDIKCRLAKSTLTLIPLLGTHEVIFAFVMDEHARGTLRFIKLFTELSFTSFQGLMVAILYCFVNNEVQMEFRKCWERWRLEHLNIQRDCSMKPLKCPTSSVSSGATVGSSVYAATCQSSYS

[5] = target: T5, human glucose-dependent insulinotropic polypeptide receptor (human, UniProt P48546 22-466)
T5 sequence (looked up): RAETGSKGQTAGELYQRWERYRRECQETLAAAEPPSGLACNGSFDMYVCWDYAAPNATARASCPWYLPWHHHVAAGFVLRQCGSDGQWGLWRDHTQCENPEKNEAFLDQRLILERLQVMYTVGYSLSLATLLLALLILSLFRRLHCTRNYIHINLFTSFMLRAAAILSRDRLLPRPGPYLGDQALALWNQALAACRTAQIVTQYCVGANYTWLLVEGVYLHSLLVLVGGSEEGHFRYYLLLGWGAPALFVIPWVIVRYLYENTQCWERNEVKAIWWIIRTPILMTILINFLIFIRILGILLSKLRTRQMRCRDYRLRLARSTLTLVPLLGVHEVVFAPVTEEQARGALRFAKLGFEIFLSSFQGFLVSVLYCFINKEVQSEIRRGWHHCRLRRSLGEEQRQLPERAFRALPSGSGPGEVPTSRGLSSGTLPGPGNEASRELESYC

[6] = target: human glucagon-like peptide 1 receptor (human, UniProt P43220 24-463)

“mouse GIP (from UniProt P48756 44-85) (ligand)” was tested, and the mGIPR, CRE Luc EC50 [1] was 35.4 pM.

“human GIP (from UniProt P09681 52-93) (ligand)” showed a hGIPR, CRE Luc 0% HSA EC50 [2] of 8.5 pM and a hGIPR, CRE Luc 1% HSA EC50 [2] of 3.8 pM.

B1: Compound #7 (peptide)
peptide: Ac-[dY]AEGTFTSDYSIYLDKQAA[Aib]K([AEEA-AEEA-γGlu-C18 diacid])FVNWLLAGGPSSGAPPPS-NH2
SMILES: CC[C@H](C)[C@H](NC(=O)[C@H](CO)NC(=O)[C@H](Cc1ccc(O)cc1)NC(=O)[C@H](CC(=O)O)NC(=O)[C@H](CO)NC(=O)[C@@H](NC(=O)[C@H](Cc1ccccc1)NC(=O)[C@@H](NC(=O)CNC(=O)[C@H](CCC(=O)O)NC(=O)[C@H](C)NC(=O)[C@@H](Cc1ccc(O)cc1)NC(C)=O)[C@@H](C)O)[C@@H](C)O)C(=O)N[C@@H](Cc1ccc(O)cc1)C(=O)N[C@@H](CC(C)C)C(=O)N[C@@H](CC(=O)O)C(=O)N[C@@H](CCCCN)C(=O)N[C@@H](CCC(N)=O)C(=O)N[C@@H](C)C(=O)N[C@@H](C)C(=O)NC(C)(C)C(=O)N[C@@H](CCCCNC(=O)COCCOCCNC(=O)COCCOCCNC(=O)CC[C@H](NC(=O)CCCCCCCCCCCCCCCCC(=O)O)C(=O)O)C(=O)N[C@@H](Cc1ccccc1)C(=O)N[C@H](C(=O)N[C@@H](CC(N)=O)C(=O)N[C@@H](Cc1c[nH]c2ccccc12)C(=O)N[C@@H](CC(C)C)C(=O)N[C@@H](CC(C)C)C(=O)N[C@@H](C)C(=O)NCC(=O)NCC(=O)N1CCC[C@H]1C(=O)N[C@@H](CO)C(=O)N[C@@H](CO)C(=O)NCC(=O)N[C@@H](C)C(=O)N1CCC[C@H]1C(=O)N1CCC[C@H]1C(=O)N1CCC[C@H]1C(=O)N[C@@H](CO)C(N)=O)C(C)C
In the case of B1, the “mGIPR, CRE Luc EC50” value [3] is reported as 42.5 pM, the “mGLP-1R, CRE Luc EC50” value [4] is reported as 17.4 pM and the “hGIPR, CRE Luc 0% HSA EC50” value [5] is reported as 3.3 pM. The “hGIPR, CRE Luc 1% HSA EC50” value [5] was 49.3 pM, the “hGLP-1R, CRE Luc 0% HSA EC50” value [6] was 55.7 pM and the “hGLP-1R, CRE Luc 1% HSA EC50” value [6] was 1730 pM.
